Experiments:
[1] = biological target: T1, Spc98 (S. cerevisiae, UniProt P53540 1-846); assay: cross-linking
T1 sequence: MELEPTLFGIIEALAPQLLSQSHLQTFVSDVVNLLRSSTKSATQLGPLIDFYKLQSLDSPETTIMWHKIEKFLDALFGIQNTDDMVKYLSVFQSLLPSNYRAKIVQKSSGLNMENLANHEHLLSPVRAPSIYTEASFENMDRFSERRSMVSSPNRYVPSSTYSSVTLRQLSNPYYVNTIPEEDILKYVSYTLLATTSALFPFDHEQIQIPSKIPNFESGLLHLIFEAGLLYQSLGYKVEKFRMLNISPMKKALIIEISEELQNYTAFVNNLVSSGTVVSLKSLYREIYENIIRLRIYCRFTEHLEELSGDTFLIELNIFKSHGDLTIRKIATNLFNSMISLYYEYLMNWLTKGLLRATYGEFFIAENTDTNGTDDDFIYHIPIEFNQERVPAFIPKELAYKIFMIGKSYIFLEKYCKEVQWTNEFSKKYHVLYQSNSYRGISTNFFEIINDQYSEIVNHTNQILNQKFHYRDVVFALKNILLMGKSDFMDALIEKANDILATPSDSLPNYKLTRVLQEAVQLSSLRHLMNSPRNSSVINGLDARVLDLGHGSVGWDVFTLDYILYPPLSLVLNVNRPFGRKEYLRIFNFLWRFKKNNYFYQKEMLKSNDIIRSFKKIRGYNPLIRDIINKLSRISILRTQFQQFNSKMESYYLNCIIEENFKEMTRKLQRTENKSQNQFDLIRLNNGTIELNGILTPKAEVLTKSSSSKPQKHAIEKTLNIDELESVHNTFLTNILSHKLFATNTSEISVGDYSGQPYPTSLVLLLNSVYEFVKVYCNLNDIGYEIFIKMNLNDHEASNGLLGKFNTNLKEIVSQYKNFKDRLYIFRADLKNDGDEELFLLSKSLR

[2] = biological target: T2, Spc97 (S. cerevisiae, UniProt P38863 1-823); assay: cross-linking
T2 sequence: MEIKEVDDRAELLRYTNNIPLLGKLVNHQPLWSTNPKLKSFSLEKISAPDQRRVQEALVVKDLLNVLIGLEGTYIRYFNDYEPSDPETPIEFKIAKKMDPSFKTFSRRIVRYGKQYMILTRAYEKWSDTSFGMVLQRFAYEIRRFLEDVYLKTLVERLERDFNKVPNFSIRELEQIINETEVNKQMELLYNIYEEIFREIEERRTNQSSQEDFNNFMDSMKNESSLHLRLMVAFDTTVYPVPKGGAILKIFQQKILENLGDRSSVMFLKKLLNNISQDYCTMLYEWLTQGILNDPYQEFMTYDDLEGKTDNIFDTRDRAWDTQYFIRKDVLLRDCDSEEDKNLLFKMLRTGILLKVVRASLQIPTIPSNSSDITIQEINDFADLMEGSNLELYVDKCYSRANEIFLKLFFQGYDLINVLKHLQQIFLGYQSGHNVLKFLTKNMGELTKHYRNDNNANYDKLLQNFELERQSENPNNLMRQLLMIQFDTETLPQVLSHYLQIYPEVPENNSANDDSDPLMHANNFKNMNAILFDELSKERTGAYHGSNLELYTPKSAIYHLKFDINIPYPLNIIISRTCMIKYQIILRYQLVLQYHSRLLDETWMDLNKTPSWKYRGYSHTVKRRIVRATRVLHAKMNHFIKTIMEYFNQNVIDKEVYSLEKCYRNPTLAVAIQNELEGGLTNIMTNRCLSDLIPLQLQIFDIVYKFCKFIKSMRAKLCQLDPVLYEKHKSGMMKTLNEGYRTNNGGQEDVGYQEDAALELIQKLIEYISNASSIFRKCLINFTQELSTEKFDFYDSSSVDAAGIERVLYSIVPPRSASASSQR

- binding result [1]: binds
- binding result [2]: binds
B1: Spc110^1-401-GST (domain or fragment, S. cerevisiae, UniProt P32380 1-401, looked up)
chain: MDEASHLPNGSLKNMEFTPVGFIKSKRNTTQTQVVSPTKVPNANNGDENEGPVKKRQRRSIDDTIDSTRLFSEASQFDDSFPEIKANIPPSPRSGNVDKSRKRNLIDDLKKDVPMSQPLKEQEVREHQMKKERFDRALESKLLGKRHITYANSDISNKELYINEIKSLKHEIKELRKEKNDTLNNYDTLEEETDDLKNRLQALEKELDAKNKIVNSRKVDDHSGCIEEREQMERKLAELERKLKTVKDQVLELENNSDVQSLKLRSKEDELKNLMNELNELKSNAEEKDTQLEFKKNELRKRTNELNELKIKSDEMDLQLKQKQNESKRLKDELNELETKFSENGSQSSAKENELKMLKNKIAELEEEISTKNSQLIAKEGKLASLMAQLTQLESKLNQRD

From paper doi:10.1101/311027 (bioRxiv, 2018)
